Key:
wtSSB (Escherichia coli) [1] = target: wtSSB (Escherichia coli) (UniProt P0AGE0); assay: SPR; settings: 10 mM Mg acetate, 3 mM K glutamate, pH 7.5, room temperature (TPM: 2 uM RecA, 2 mM ATP, 1 mM DTT, 1 mg/mL BSA)
[2] = target: SSBΔC8 (Escherichia coli) (UniProt P0AGE0); assay: SPR; settings: 10 mM Mg acetate, 3 mM K glutamate, pH 7.5, room temperature (TPM: 2 uM RecA, 2 mM ATP, 1 mM DTT, 1 mg/mL BSA)
wtSSB (Escherichia coli) [3] = target: wtSSB (Escherichia coli) (UniProt P0AGE0); assay: EMSA; settings: Buffer 1: 25 mM Tris-HCl, 10 mM Mg acetate, 3 mM K glutamate, pH 7.5, room temperature (TPM: 2 uM RecA, 2 mM ATP, 1 mM DTT, 1 mg/mL BSA); buffer 2: 10 mM Tris …
[4] = target: SSBΔC8 (Escherichia coli) (UniProt P0AGE0); assay: EMSA; settings: Buffer 1: 25 mM Tris-HCl, 10 mM Mg acetate, 3 mM K glutamate, pH 7.5, room temperature (TPM: 2 uM RecA, 2 mM ATP, 1 mM DTT, 1 mg/mL BSA); buffer 2: 10 mM Tris …
[5] = buffer 1, 0.005% Tween-20, Buffer 1: 25 mM Tris-HCl, buffer 2: 10 mM Tris …
[6] = buffer 2 (10 mM Tris, 0.1 mM Na3EDTA, pH 8.1), 0.005% Tween-20, Buffer 1: 25 mM Tris-HCl

| Substance | Kd (wtSSB (Escherichia coli) [1]; [5]) [nM] | Kd (wtSSB (Escherichia coli) [1]; [6]) [nM] | Kd [2, 5] [nM] | Kd [2, 6] [nM] | Kd (wtSSB (Escherichia coli) [3]) [nM] | Kd [4] [nM] |
| --- | --- | --- | --- | --- | --- | --- |
| 55 nt ssDNA overhang (SPR) | 24 | 145 | 4.7 | 89.1 | – | – |
| 55 nt ssDNA overhang (EMSA) | – | – | – | – | 4.04 | 13.9 |
